# In patent publication US20250000991A1 (Eli Lilly, published 2025):
# B1: Ab1a ADC (Ab1a conjugated as in Formula XI, DAR of 8) (antibody, human IgG1, kappa, L234A L235A, V domains shown)
# VH: QVQLVQSGAQVKKPGASVKVSCKASGYTFTGYYIHWVRQAPGQGLEWMGWINPNSGGTNYAQKFQGRVTMTRDTSISTAYMELSRLRSDDTAVYFCAREDWDFDYWGQGTLVTVSS
# VL: EIVLTQSPGTLSLSPGERATLSCRTSQSVSSSYLAWYQQKPGQAPRLLIYGASNRATDIPDRFSGSGSGTDFTLTINRLEPEDFAVYYCQQYGSSPITFGQGTRLEIKR
# modifications: camptothecin analog linker-payload of Formula XI on cysteine thiols after full reduction, DAR of 8 per antibody; positions not given
# notes: Antibody-drug conjugate of Ab1a; also called Ab1a (ADC column)
# B2: Ab3 ADC (Ab3 conjugated as in Formula XI, DAR of 8) (antibody, human IgG1, kappa, L234A L235A, V domains shown)
# VH: EVQLVESGGGLVKPGGSLRLSCAASGFNLNHYNMNWVRQAPGKGLEWVSSVSSGGGFRYYADSVRGRFTISRDNAKNSLYLQMNSLRAEDTAVYYCARGAVFHDAFDIWGQGTLVTVSS
# VL: DIQLTQSPSFLSASVGDRVTITCRASQDISSYLAWYQQKPGKAPKLLIYVASTLQSGVPSRFSGSGSGTEFTLTISSLQPEDFATYYCQQINSYPFTFGQGTKVEIKR
# modifications: camptothecin analog linker-payload of Formula XI on cysteine thiols after full reduction, DAR of 8 per antibody; positions not given
# notes: Antibody-drug conjugate of Ab3; also called Ab3 (ADC column)
# B3: Ab4 ADC (Ab4 conjugated as in Formula XI, DAR of 8) (antibody, human IgG1, kappa, L234A L235A, V domains shown)
# VH: QVQLQESGPGLVKPSETLSLTCTVSGGSISGYYWSWIRQPPGKGLEWIGYIYYSGSTNYNPSLKSRVTISVDTSKNQFSLKLSSVTAADTAVYYCARLGIFFDAFDIWGQGTLVTVSS
# VL: DIQLTQSPSFLSASVGDRVTITCRASQGISSYLAWYQQKPGKAPKLLIYAASTLQSGVPSRFSGSGSGTEFTLTISSLQPEDFATYYCQQFNSYPWTFGQGTKVEIKR
# modifications: camptothecin analog linker-payload of Formula XI on cysteine thiols after full reduction, DAR of 8 per antibody; positions not given
# notes: Antibody-drug conjugate of Ab4; also called Ab4 (ADC column)
# B4: Ab5 ADC (Ab5 conjugated as in Formula XI, DAR of 8) (antibody, human IgG1, kappa, L234A L235A, V domains shown)
# VH: QVQLVQSGAEVKKPGASVKVSCKASGYTFTSYYVHWVRQAPGQGLEWMGIINPSIISTSYAQKFQARVTMTRDTSTSTVYMELSSLRSEDTAVYYCARGLNFDAFDIWGQGTLVTVSS
# VL: DIQLTQSPSFLSASVGDRVTITCRASQGISSYLAWYQQKPGKAPKLLIYAASTLQSGVPSRFSGSGSGTEFTLTISSLQPEDFATYYCQQLNNYPFTFGQGTKVEIKR
# modifications: camptothecin analog linker-payload of Formula XI on cysteine thiols after full reduction, DAR of 8 per antibody; positions not given
# notes: Antibody-drug conjugate of Ab5; also called Ab5 (ADC column)
# B5: Ab6 ADC (Ab6 conjugated as in Formula XI, DAR of 8) (antibody, human IgG1, lambda, L234A L235A, V domains shown)
# VH: QVQLVQSGAEVKKPGASVKVSCKASGYTFTGYYMHWVRQAPGQGLEWMGIINPSGGSTTYAQKFQGRVTMTRDTSTSTVYMELSSLRSEDTAVYYCARGRLGTYFDYWGQGTLVTVSS
# VL: SYVLTQPPSVSVAPGQTARITCGGNNIGSKSVHWYQQKPGQAPVLVVYDDSDRPSGIPERFSGSNSGNTATLTISRVEAGDEADYYCQVWDRSSDQVVFGGGTKLTVLG
# modifications: camptothecin analog linker-payload of Formula XI on cysteine thiols after full reduction, DAR of 8 per antibody; positions not given
# notes: Antibody-drug conjugate of Ab6; also called Ab6 (ADC column)
# B6: Ab7 (antibody, human IgG1, lambda, L234A L235A, V domains shown)
# VH: QVQLVQSGAEVKKPGASVKVSCKASGYTFTNYYMHWVRQAPGQGLEWMGIINPSSGSASYAQKFQGRVTMTRDTSTSTVYMELSSLRSEDTAVYYCAREGVGRDILQAFDIWGQGTLVTVSS
# VL: QSVLTQPPSVSEAPRQRVTISCSGSSSNIGNNAVNWYQQLPGKAPKLLIYYDDLLPSGVSDRFSGSKSGTSASLAISGLQSEDEADYYCAAWDDSLNGHVFGGGTKLTVLG
# notes: Unconjugated antibody; also called Antibody 7; nectin-4 antibody Ab7
# B7: Ab8 (antibody, human IgG1, lambda, L234A L235A, V domains shown)
# VH: QVQLVQSGAEVKKPGASVKVSCKASGYTFTSYYIHWVRQAPGQGLEWMGIINPISGRTSSAQKFQGRVTMTRDTSTSTVYMELSSLRSEDTAVYYCAKEGVGGELLRAFDIWGQGTLVTVSS
# VL: QSVLTQPPSVSEAPRQRVTISCSGSSSNIGNNAVNWYQQLPGKAPKLLIYYDDLLPSGVSDRFSGSKSGTSASLAISGLQSEDEADYYCAAWDDSLNGFVFGGGTKLTVLG
# notes: Unconjugated antibody; also called Antibody 8; nectin-4 antibody Ab8
# B8: Ab8 ADC (Ab8 conjugated as in Formula XI, DAR of 8) (antibody, human IgG1, lambda, L234A L235A, V domains shown)
# VH: QVQLVQSGAEVKKPGASVKVSCKASGYTFTSYYIHWVRQAPGQGLEWMGIINPISGRTSSAQKFQGRVTMTRDTSTSTVYMELSSLRSEDTAVYYCAKEGVGGELLRAFDIWGQGTLVTVSS
# VL: QSVLTQPPSVSEAPRQRVTISCSGSSSNIGNNAVNWYQQLPGKAPKLLIYYDDLLPSGVSDRFSGSKSGTSASLAISGLQSEDEADYYCAAWDDSLNGFVFGGGTKLTVLG
# modifications: camptothecin analog linker-payload of Formula XI on cysteine thiols after full reduction, DAR of 8 per antibody; positions not given
# notes: Antibody-drug conjugate of Ab8; also called Ab8 (ADC column)
# Columns and labels:
# [1] = molecular target: T1, human Nectin-4-eGFP on T24 cells (clone 3) (human, UniProt Q96NY8 32-510); experiment: cell-based or functional assay
# T1 sequence: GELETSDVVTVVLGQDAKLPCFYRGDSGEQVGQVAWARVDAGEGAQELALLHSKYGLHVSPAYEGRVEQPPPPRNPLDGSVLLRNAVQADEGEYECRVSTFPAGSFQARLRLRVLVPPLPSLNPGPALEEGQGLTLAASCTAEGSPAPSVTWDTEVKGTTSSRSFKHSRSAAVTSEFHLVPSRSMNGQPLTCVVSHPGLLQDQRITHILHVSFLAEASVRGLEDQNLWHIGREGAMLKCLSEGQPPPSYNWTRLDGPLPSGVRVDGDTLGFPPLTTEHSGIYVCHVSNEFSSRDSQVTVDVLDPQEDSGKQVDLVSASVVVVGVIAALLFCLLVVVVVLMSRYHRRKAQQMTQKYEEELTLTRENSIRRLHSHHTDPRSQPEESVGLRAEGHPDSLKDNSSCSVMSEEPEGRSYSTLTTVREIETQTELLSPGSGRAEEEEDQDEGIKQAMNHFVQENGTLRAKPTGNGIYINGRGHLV
# [2] = molecular target: T2, human nectin-4 on cells (human, UniProt Q96NY8 32-510); experiment: cell-based or functional assay
# T2 sequence: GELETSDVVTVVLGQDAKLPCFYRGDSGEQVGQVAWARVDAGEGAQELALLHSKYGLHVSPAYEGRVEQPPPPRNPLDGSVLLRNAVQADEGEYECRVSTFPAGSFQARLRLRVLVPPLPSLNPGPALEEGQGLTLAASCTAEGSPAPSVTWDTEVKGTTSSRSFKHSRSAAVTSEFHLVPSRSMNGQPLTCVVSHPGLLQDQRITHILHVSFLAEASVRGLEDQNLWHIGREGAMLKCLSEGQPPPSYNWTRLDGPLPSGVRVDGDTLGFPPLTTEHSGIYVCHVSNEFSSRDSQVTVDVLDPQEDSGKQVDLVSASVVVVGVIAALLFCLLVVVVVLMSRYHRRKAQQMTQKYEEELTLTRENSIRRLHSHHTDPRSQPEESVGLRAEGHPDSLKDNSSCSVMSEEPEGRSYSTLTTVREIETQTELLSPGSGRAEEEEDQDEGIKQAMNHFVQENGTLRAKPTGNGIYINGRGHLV
# [3] = molecular target: T3, recombinant HIS-tagged cyno nectin-4 (Acro Biosystems Cat. No. NE4-C52H4) (cyno, UniProt A0A2K5WES1 32-349); experiment: SPR Biacore 8K+, ADC captured via anti-human Fc, nectin-4 analyte, 37 C;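 further: Nectin-4 injected over captured ADC at 0 to 600 nM for 2 min association, then 10 min dissociation, with a reference flow cell lacking ADC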
# T3 construct: Bought protein; HIS tag not described
# T3 sequence: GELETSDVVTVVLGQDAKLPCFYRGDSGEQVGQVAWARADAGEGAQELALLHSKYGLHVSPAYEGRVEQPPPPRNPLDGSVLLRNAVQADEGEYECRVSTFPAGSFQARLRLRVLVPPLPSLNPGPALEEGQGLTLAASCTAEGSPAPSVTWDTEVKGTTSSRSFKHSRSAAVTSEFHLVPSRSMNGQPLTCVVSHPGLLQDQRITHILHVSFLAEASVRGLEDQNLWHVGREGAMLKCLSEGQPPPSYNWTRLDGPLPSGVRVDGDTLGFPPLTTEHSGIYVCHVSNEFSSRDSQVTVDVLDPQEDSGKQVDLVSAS
# [4] = molecular target: T4, recombinant HIS-tagged rat nectin-4 (R&D Systems Cat. No. 9997-N4-050) (rat, UniProt D3ZET1 31-348); experiment: as above
# T4 construct: Bought protein; HIS tag not described
# T4 sequence: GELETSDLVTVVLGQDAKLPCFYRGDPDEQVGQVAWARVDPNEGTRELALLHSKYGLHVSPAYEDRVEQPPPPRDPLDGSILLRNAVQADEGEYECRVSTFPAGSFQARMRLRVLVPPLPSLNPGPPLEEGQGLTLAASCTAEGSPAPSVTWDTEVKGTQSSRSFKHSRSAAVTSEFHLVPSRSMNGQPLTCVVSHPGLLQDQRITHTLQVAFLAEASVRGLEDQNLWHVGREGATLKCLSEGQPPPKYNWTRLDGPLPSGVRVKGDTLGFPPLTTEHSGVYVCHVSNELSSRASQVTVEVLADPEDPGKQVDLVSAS
# [5] = molecular target: T5, recombinant HIS-tagged human nectin-4 (Acro Biosystems Cat. No. NE4-H52H3) (human, UniProt Q96NY8 32-349); experiment: SPR Biacore 8K+, ADC captured via anti-human Fc, nectin-4 analyte, 37 C; replicate 1 of 2
# T5 construct: Bought protein; not shown: HIS tag
# T5 sequence: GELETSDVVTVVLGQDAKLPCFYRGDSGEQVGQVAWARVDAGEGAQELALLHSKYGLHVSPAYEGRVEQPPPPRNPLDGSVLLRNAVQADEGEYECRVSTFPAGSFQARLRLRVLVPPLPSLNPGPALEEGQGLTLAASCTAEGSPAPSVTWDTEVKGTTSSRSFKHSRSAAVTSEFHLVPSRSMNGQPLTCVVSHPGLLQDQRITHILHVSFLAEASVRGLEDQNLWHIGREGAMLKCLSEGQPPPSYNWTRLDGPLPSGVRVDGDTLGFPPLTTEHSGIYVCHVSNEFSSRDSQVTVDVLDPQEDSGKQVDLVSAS
# [6] = molecular target: T5, recombinant HIS-tagged human nectin-4 …; experiment: SPR Biacore 8K+, ADC captured via anti-human Fc, nectin-4 analyte, 37 C; replicate 2 of 2
# [7] = molecular target: T5, recombinant HIS-tagged human nectin-4 …; experiment: SPR Biacore 8K+, ADC captured via anti-human Fc, nectin-4 analyte, 37 C;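 further: Nectin-4 injected over captured ADC at 0 to 600 nM for 2 min association, then 10 min dissociation, with a reference flow cell lacking ADC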
# [8] = molecular target: T2, human nectin-4 on cells; experiment: flow cytometry, NCI-H1781 cells (low endogenous nectin-4)
# [9] = molecular target: T2, human nectin-4 on cells; experiment: flow cytometry, SUM190PT cells (high endogenous nectin-4)
Binder,% activity (max GFP signal loss compared to enfortumab mAb (100%)) [1] [%],EC50 (nM) of nectin-4-eGFP signal loss [1] [nM],"Cytotoxicity IC50, NCI H1781 cells [2] [nM]","Cytotoxicity IC50, T24 Nectin-4 clone 108 cells [2] [nM]",Kd [3] [nM],koff [3] [s⁻¹],kon [3] [M⁻¹ s⁻¹],Kd [4] [nM],koff [4] [s⁻¹],kon [4] [M⁻¹ s⁻¹],Kd [7] [nM],koff [7] [s⁻¹],kon [7] [M⁻¹ s⁻¹],other results
B1,150,2.3,0.0981,0.0729,83.9,0.026,310000,180,0.0453,252000,–,–,–,Kd [5]: 142 nM; koff [5]: 0.0402 s⁻¹; kon [5]: 283000 M⁻¹ s⁻¹; Kd [6]: 72.5 nM; koff [6]: 0.0308 s⁻¹; kon [6]: 424000 M⁻¹ s⁻¹
B2,136,2.68,0.0553,0.0825,0.986,0.000426,432000,5.28,0.000903,171000,1.03,0.000437,424000,–
B3,143,2.1,0.311,0.115,–,–,–,–,–,–,204,–,–,–
B4,112,2.8,0.0657,0.0994,3.1,0.0033,1.06e+06,31.3,0.0199,636000,3.94,0.00346,878000,–
B5,118,2.26,0.0608,0.0783,–,–,–,114,0.105,925000,91.8,0.163,1.78e+06,–
B6,66.5,3.37,–,–,–,–,–,–,–,–,–,–,–,% of enfortumab (Average Max MFI) [8]: 96%; Average Max MFI [8]: 87000 MFI; EC50 [8]: 0.09 nM; % of enfortumab (Average Max MFI) [9]: 112%; Average Max MFI [9]: 1.2e+06 MFI; EC50 [9]: 0.14 nM
B7,53.7,3.68,–,–,–,–,–,–,–,–,–,–,–,% of enfortumab (Average Max MFI) [8]: 99.6%; Average Max MFI [8]: 90000 MFI; EC50 [8]: 0.1 nM; % of enfortumab (Average Max MFI) [9]: 81.9%; Average Max MFI [9]: 8.7e+06 MFI; EC50 [9]: 0.11 nM
B8,125,2.48,0.0572,0.088,42.1,0.0524,1.25e+06,34.4,0.0165,482000,48.7,0.0338,694000,–
